# Results: paper PMC3931076, “Crystal Structures of Leukotriene C4 Synthase in Complex with Product Analogs” (The Journal of Biological Chemistry, 2013)
# Molecular target: the molecule itself
# Assay: crystal structure; sitting drop vapor diffusion at room temperature, 3.5 mg/ml protein with 1 mM GSH; 1.8-2.2 M NH4SO4, 0.2 M NaCl, 0.1 M sodium cacodylate pH 6.1-6.8; analog I soaked, analogs II and III co-crystallised; space group F23
protein,measurement,value
"Leukotriene C4 synthase (human, wild type) (enzyme, Leukotriene C4 synthase, human, wild type; integral membrane protein in dodecyl maltoside; Expression and purification 'essentially as described (15)'; The trimer arises by crystal symmetry (space group F23); also called LTC4S; LTC4 synthase) MKDEVALLAAVTLLGVLLQAYFSLQVISARRAFRVSPPLTTGPPEFERVYRAQVNCSEYFPLFLATLWVAGIFFHEGAAALCGLVYLFARLRYFQGYARSAQLRLAPLYASARALWLLVALAALGLLAHFLPAALRAALLGRLRTLLPWA",stoichiometry N,3
